Among the data in PMC4376737, “An S188V Mutation Alters Substrate Specificity of Non-Stereospecific α-Haloalkanoic Acid Dehalogenase E (DehE)” (PLoS ONE, 2015) are Km, kcat and kcat/Km values, retold here.

In general, kcat refers to the number of substrate molecules converted per active site and unit of time at saturation. As usually defined, the kcat/Km is the turnover number divided by the Michaelis constant.

Holding throughout (conditions): 0.1 M Tris-acetate pH 7.6, 30°C, apparent
The test system of data set [1] is C[C@@H](Cl)C(=O)O. The data set is described as follows: purified protein.
Data set [2] concerns C[C@H](Cl)C(=O)O. Briefly: purified protein.
A further data set has as its system T1, O=C(O)CCCl.
T1 construct: recombinant from pET-22b(+)-dehE in E. coli, purified from cell-free extract; 32 kDa band on SDS-PAGE; monomeric
Briefly: colourimetric chloride release (Bergmann and Sanik), A460. The class given is biochemical, Rhizobium sp. RC1. The text has this: (§1) colourimetric chloride release (Bergmann and Sanik), A460 on DehE (non-stereospecific α-haloalkanoic acid dehalogenase E)

In data set [3] the test system is T2, C[C@@H](Cl)C(=O)O.
T2 construct: recombinant from pET-22b(+)-dehE in E. coli, purified from cell-free extract; 32 kDa band on SDS-PAGE; monomeric
The description is as above. The format is biochemical, Rhizobium sp. RC1.
From the text: as §1

Data set [4] concerns T3, C[C@H](Cl)C(=O)O.
T3 construct: recombinant from pET-22b(+)-dehE in E. coli, purified from cell-free extract; 32 kDa band on SDS-PAGE; monomeric
The description is as above. The class given is biochemical, Rhizobium sp. RC1.
From the text: as §1

In the case of “DehE (non-stereospecific α-haloalkanoic acid dehalogenase E) (Rhizobium sp. RC1)”, in the data set on C[C@@H](Cl)C(=O)O [1], the Km result is “(4.8 ± 0.03) x 10^-4 M”, the kcat was found to be 7.76 s⁻¹ and the catalytic efficiency (kcat/Km) came out at 16100 M⁻¹ s⁻¹. In the data set with C[C@H](Cl)C(=O)O [2], the Km entry is on record as “(4.3 ± 0.02) x 10^-4 M”, the kcat came out at 12.3 s⁻¹ and the kcat/Km worked out at 28600 M⁻¹ s⁻¹.
Regarding “DehE (non-stereospecific α-haloalkanoic acid dehalogenase E) (Rhizobium sp. RC1; S188V)”, in the data set on O=C(O)CCCl, the Km entry was “(4.9 ± 0.02) x 10^-4 M”, the kcat is 12.6 s⁻¹ and the kcat/Km was 25600 M⁻¹ s⁻¹. Also, in the data set on C[C@@H](Cl)C(=O)O [3], the Km entry is reported as “(4.5 ± 0.01) x 10^-4 M”, the kcat turned out to be 9.18 s⁻¹ and the kcat/Km is 20400 M⁻¹ s⁻¹. Further, in the data set with C[C@H](Cl)C(=O)O [4], the Km entry is “(4.2 ± 0.02) x 10^-4 M”, the kcat stood at 13.1 s⁻¹ and the kcat/Km came to 31200 M⁻¹ s⁻¹.
